The values that follow come from patent US20240156870A1 (NATIONAL RESEARCH COUNCIL OF CANADA, published 2024).

Where two headings read alike, the source gives them in different places.

The target of experiment [1] is T1, human EGFR-Fc fusion protein (human, UniProt P00533 25-645).
T1 construct: Bought; not shown: Fc part of the bought fusion
Nature of the experiment: SPR, VHH over human EGFR-Fc.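 Note: Single-cycle kinetics on Biacore T200 at 25 °C in HBS-EP, monomeric VHHs at 0.6–50 nM flowed over immobilized EGFR, 180 s association, 600 s dissociation, ethanolamine-blocked reference cell.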 In general terms: Surface plasmon resonance follows binding to a sensor surface in real time, without labels.

Experiment [2] deals with recombinant human EGFRvIII ectodomain (human) (UniProt P00533). The experiment is described as follows: SPR multi-cycle, VHH over amine-coupled EGFRvIII ectodomain.
Experiment [3] has as its target T1, human EGFR-Fc fusion protein. The experiment is described as follows: SPR single-cycle, VHH over amine-coupled human EGFR-Fc.
Description: (§1) In the second SPR experiment, single-cycle kinetic analyses were performed on a Biacore™ T200 instrument (GE Healthcare) at 25° C. in HBS-EP buffer. […] An ethanolamine-blocked flow cell served as the reference. Monomeric VHHs at concentrations ranging from 0.6 to 50 nM were injected over the EGFR surfaces in HBS-EP buffer at a flow rate of 40 μL/min. The contact time was 180 s and the dissociation time was 600 s. The EGFR surfaces were regenerated using a 10 s pulse of 10 mM glycine, pH 1.5.
In experiment [4] the target is T2, recombinant 6xHis-tagged human EGFR ectodomain (human, UniProt P00533 25-645).
T2 construct: extracellular domain; Bought; also called recombinant human EGFR; EGFR extracellular domain; not shown: 6xHis tag
Nature of the experiment: SPR multi-cycle, VHH over amine-coupled EGFR ectodomain.

Experiment [5] has as its target T3, rhesus EGFR-Fc fusion protein (rhesus, UniProt P55245 25-645).
T3 construct: Bought; not shown: Fc part of the bought fusion
The experiment is described as follows: SPR single-cycle, VHH over amine-coupled rhesus EGFR-Fc.

Experiment [6] deals with T3, rhesus EGFR-Fc fusion protein. The experiment is described as above. The source holds these as a separate data set.
Description: as §1
For experiment [7], the target named is T1, human EGFR-Fc fusion protein. The experiment is described as follows: ELISA, VHH titrated from about 0.5 to 1000 ng/mL, OD 450 nm. In general terms: An ELISA detects its analyte on a solid surface through an enzyme-linked reagent.
Experiment [8] has as its target T3, rhesus EGFR-Fc fusion protein. Described as above.
Experiment [9] deals with T4, mouse EGFR-Fc fusion protein (mouse, UniProt Q01279 25-647).
T4 construct: Bought; not shown: Fc part of the bought fusion
Described as above.

The target of experiment [10] is T2, recombinant 6xHis-tagged human EGFR …. Nature of the experiment: SPR multi-cycle, EGFR ectodomain over amine-coupled NRC-sdAb032.
Description: (§2) In the first SPR experiment, multi-cycle kinetic analyses were performed on a Biacore™ 3000 instrument (GE Healthcare) at 25° C. in HBS-EP buffer [10 mM HEPES, pH 7.4, containing 150 mM NaCl, 3 mM EDTA and 0.005% (w/v) surfactant P20]. […] An ethanolamine-blocked flow cell served as the reference. Monomeric VHHs at concentrations ranging from 0.1 to 100 nM were injected over the EGFR and EGFRvIII surfaces in HBS-EP buffer at a flow rate of 20 μL/min. […] Contact times were 180-300 s and dissociation times were 300-600 s.
In experiment [11] the target is T4, mouse EGFR-Fc fusion protein. Nature of the experiment: ELISA, VHH titrated from about 0.5 to 1000 ng/mL, OD 450 nm. This is another data set of the same source.
Experiment [12] concerns the target T2, recombinant 6xHis-tagged human EGFR …. Nature of the experiment: SPR (value of Table 2 repeated in Table 6).
Description: as §2
The target of experiment [13] is T4, mouse EGFR-Fc fusion protein. The experiment is described as follows: SPR single-cycle, VHH over amine-coupled mouse EGFR-Fc.
Description: as §1
For experiment [14], the target named is T1, human EGFR-Fc fusion protein. Nature of the experiment: ELISA, VHH titrated from about 0.5 to 1000 ng/mL, OD 450 nm. The source holds these as a separate data set.
In experiment [15] the target is T3, rhesus EGFR-Fc fusion protein. Described as above. The source holds these as a separate data set.

B1: NRC-sdAb022 (VHH)
VHH: QVQLVESGGGLVQPGGSLKLSCAVSGFAFERNGVSWYRQAPGKQREFVAVISSGTTTYKDSVKGRFTISRDNTRNTAYLQMNNLKPEDTAVYYCNLVPPTPYWGQGTQVTVSS
notes: Monomeric llama VHH; in ELISA a version with biotin acceptor peptide and 6xHis was used; Stands for the 'NRC-sdAb022-family' in the cross-species and binning sentences; also called EGFR2; NRC-sdAb022-family VHHs; not shown: C-terminal c-Myc and 6xHis tags
In the case of B1, the Kd in [1] came out at 8.9 nM; in experiment [2], 2.6 nM; in experiment [3], 8.9 nM; in experiment [4], 1.7 nM; in experiment [6], 19.6 nM. Further, the koff was found to be 0.0022 s⁻¹ in experiment [1]; 0.00077 s⁻¹ in [2]; 0.0022 s⁻¹ in experiment [3]; 0.00067 s⁻¹ in experiment [4]; 0.0017 s⁻¹ in [5]. Also, the kon in experiment [1] was 250000 M⁻¹ s⁻¹; in [2], 290000 M⁻¹ s⁻¹; in experiment [3] it was 250000 M⁻¹ s⁻¹; in [4], 400000 M⁻¹ s⁻¹; in experiment [5], 85000 M⁻¹ s⁻¹. For the same molecule, the “EC50 (read off the curve)” value in experiment [7] is around 3 ng/mL; in experiment [8], around 4 ng/mL. In addition, in [9], the binding result is given as “no binding (tested: 1000 ng/mL)”.

B2: NRC-sdAb032 (VHH)
VHH: QVKLEESGGGLVQPGGSLRLSCSASGSISSISVMGWYRQAPGKQRELVARITSGGISNYVDSVKGRFTISGDSAKNIVYLQMNSLKPEDTAVYYCYMYVHVGYWVDYWGQGTQVTVSS
notes: Monomeric llama VHH; in ELISA a version with biotin acceptor peptide and 6xHis was used; also called EVE46; not shown: C-terminal c-Myc and 6xHis tags
Turning to B2, the Kd in experiment [1] was found to be 6.9 nM; in experiment [3], 6.9 nM; in experiment [6], 8.1 nM; in [10] it was 12.9 nM. The dissociation rate constant (koff) in [1] was 0.0025 s⁻¹; in experiment [3] it was 0.0025 s⁻¹; in [5] it was 0.0039 s⁻¹; in [10], 0.0013 s⁻¹. Further, the kon in experiment [1] worked out at 360000 M⁻¹ s⁻¹; in experiment [3], 360000 M⁻¹ s⁻¹; in experiment [5], 480000 M⁻¹ s⁻¹; in [10] it was 100000 M⁻¹ s⁻¹. Besides, the binding result in experiment [11] is reported as “no binding (tested: 1000 ng/mL)”.

B3: NRC-sdAb028 (VHH)
VHH: EVQLVESGGGLVQPGGSLRLSCTVSGSFFSRDAMGWHRQAPGKQREMVAGISSGGLSNHAESVKGRFTISRDNSKNTVYLQMNNLKPEDTAVYYCSIYEDGVWTSWGQGTQVTVSS
notes: Monomeric llama VHH; in ELISA a version with biotin acceptor peptide and 6xHis was used; also called EGFR10; not shown: C-terminal c-Myc and 6xHis tags
For B3, the Kd in experiment [1] worked out at 6 nM; in [12], 9 nM; in experiment [2], 8.6 nM; in experiment [3] it was 6 nM; in experiment [13] it was 11.6 nM; in experiment [4], 9 nM. In addition, the koff worked out at 0.00055 s⁻¹ in [1]; 0.00084 s⁻¹ in [2]; 0.00055 s⁻¹ in experiment [3]; 0.0075 s⁻¹ in experiment [13]; 0.00075 s⁻¹ in [4]. Further, the kon in experiment [1] was determined as 92000 M⁻¹ s⁻¹; in experiment [2], 98000 M⁻¹ s⁻¹; in experiment [3], 92000 M⁻¹ s⁻¹; in [13], 650000 M⁻¹ s⁻¹; in [4] it was 84000 M⁻¹ s⁻¹. In addition, in experiment [14], the “EC50 (read off the curve)” value was around 7 ng/mL. Moreover, the binding result in experiment [15] is on record as “no binding (tested: 1000 ng/mL)”.

Broadly, the Kd is a measure of binding affinity in units of concentration. The term koff denotes the first-order rate constant of dissociation. Usually kon stands for the second-order rate constant of association. In general, EC50 (read off the curve) refers to the midpoint of the concentration-response curve. Low values mean a more potent agent, high ones a less potent agent.
